Values of other authors, collected in PMC4944212.
Where two headings read alike, the source gives them in different places.

Legend:
[1] = molecular target: SosCat SosCat (Homo sapiens) (UniProt Q07889); assay: fluorescence titration
[2] = molecular target: SosCat SosCat (Homo sapiens) (UniProt Q07889)
[3] = molecular target: SosCat SosCat catalytic site (Homo sapiens) (UniProt Q07889)

Substance: H-Ras (from UniProt P01112)
- Kd [1]: 5 µM
- Kd [2]: 54 µM
- Kd [3]: 21 µM
